Assay results taken from patent publication US20250026844A1.
Where “and” joins values, the source holds several entries; their conditions need not be identical. Identical values can stand only once.

Legend:
[1] = biological target: human BCMA on cells (human) (UniProt Q02223); experiment: FACS, H929 cells
[2] = biological target: monkey BCMA-His protein (monkey); experiment: ELISA, coated monkey BCMA-His, antibody 0.01 nM
[3] = biological target: monkey BCMA-His protein (monkey); experiment: ELISA, coated monkey BCMA-His, antibody 1 nM
[4] = biological target: monkey BCMA-His protein (monkey); experiment: ELISA, coated monkey BCMA-His, antibody 0.0001 nM
[5] = biological target: human BCMA-His protein (human) (UniProt Q02223); experiment: ELISA, coated human BCMA-His, antibody 0.0001 nM
[6] = biological target: human BCMA on cells (human) (UniProt Q02223); experiment: FACS, U266 cells
[7] = biological target: human BCMA on cells (human) (UniProt Q02223); experiment: FACS, Flp-in CHO-human BCMA cells
[8] = biological target: human BCMA-His protein (human) (UniProt Q02223); experiment: ELISA, coated human BCMA-His, antibody 1 nM
[9] = biological target: monkey BCMA-His protein (monkey); experiment: ELISA, coated monkey BCMA-His, antibody 10 nM
[10] = biological target: human BCMA-His protein (human) (UniProt Q02223); experiment: ELISA, coated human BCMA-His, antibody 10 nM
[11] = biological target: human BCMA on cells (human) (UniProt Q02223); experiment: FACS, U266 cells; remark: listed apart in the source
[12] = biological target: human BCMA-His protein (human) (UniProt Q02223); experiment: ELISA, coated human BCMA-His, antibody 0.001 nM
[13] = biological target: monkey BCMA on Flp-inCHO cells (monkey); experiment: FACS, Flp-in CHO-monkey BCMA cells
[14] = biological target: human BCMA on cells (human) (UniProt Q02223); experiment: FACS, U266 cells; remark: listed apart in the source
[15] = biological target: human BCMA-His protein (human) (UniProt Q02223); experiment: ELISA, coated human BCMA-His, antibody 100 nM
[16] = biological target: human BCMA on cells (human) (UniProt Q02223); experiment: FACS, H929 cells; remark: listed apart in the source
[17] = biological target: human BCMA on cells (human) (UniProt Q02223); experiment: FACS, H929 cells; remark: listed apart in the source
[18] = biological target: monkey BCMA-His protein (monkey); experiment: ELISA, coated monkey BCMA-His, antibody 0.1 nM
[19] = biological target: human BCMA-His protein (human) (UniProt Q02223); experiment: ELISA, coated human BCMA-His, antibody 0.01 nM
[20] = biological target: human BCMA on cells (human) (UniProt Q02223); experiment: FACS, H929 cells; remark: listed apart in the source
[21] = biological target: monkey BCMA-His protein (monkey); experiment: ELISA, coated monkey BCMA-His, antibody 0.001 nM
[22] = biological target: monkey BCMA-His protein (monkey); experiment: ELISA, coated monkey BCMA-His, antibody 100 nM
[23] = biological target: human BCMA on cells (human) (UniProt Q02223); experiment: FACS, U266 cells; remark: listed apart in the source
[24] = biological target: human BCMA-His protein (human) (UniProt Q02223); experiment: ELISA, coated human BCMA-His, antibody 0.1 nM

Chain of monkey BCMA-His protein (monkey) (A0A2K5 entry or part of it limits assumed): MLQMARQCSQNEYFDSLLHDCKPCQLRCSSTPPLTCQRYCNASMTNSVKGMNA
Chain of human BCMA on cells (human) (Q02223 whole entry): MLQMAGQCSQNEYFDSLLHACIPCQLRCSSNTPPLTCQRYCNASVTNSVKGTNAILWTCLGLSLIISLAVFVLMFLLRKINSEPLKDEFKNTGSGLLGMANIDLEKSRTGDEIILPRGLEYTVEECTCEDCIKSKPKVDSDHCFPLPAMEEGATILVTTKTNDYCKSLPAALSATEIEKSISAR
Chain of human BCMA-His protein (human) (Q02223 1-54 limits assumed): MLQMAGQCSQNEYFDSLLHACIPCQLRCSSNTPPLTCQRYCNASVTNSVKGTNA

Maximum mean fluorescence intensity [1]: 110 MFI
OD450 nm [2]: 0.04 OD450 nm
OD450 nm [3]: 0.05 OD450 nm
OD450 nm [4]: 0.05 OD450 nm
OD450 nm [5]: 0.05 OD450 nm
Maximum mean fluorescence intensity [6]: 149 MFI
Cell mean fluorescence density [7]: 54.6 MFI
OD450 nm [8]: 0.05 OD450 nm
OD450 nm [9]: 0.06 OD450 nm
OD450 nm [10]: 0.07 OD450 nm
Maximum mean fluorescence intensity [11]: 124 MFI
OD450 nm [12]: 0.05 OD450 nm
Cell mean fluorescence density [13]: 49 MFI
Maximum mean fluorescence intensity [14]: 103 MFI
OD450 nm [15]: 0.12 OD450 nm
Maximum mean fluorescence intensity [16]: 121 MFI
Maximum mean fluorescence intensity [17]: 99 MFI and 91 MFI and 167 MFI
OD450 nm [18]: 0.05 OD450 nm
OD450 nm [19]: 0.05 OD450 nm
Maximum mean fluorescence intensity [20]: 93 MFI
OD450 nm [21]: 0.05 OD450 nm
OD450 nm [22]: 0.1 OD450 nm
Maximum mean fluorescence intensity [23]: 108 MFI and 111 MFI and 119 MFI
OD450 nm [24]: 0.05 OD450 nm
Substance: anti-hel-hlgG1 (negative control antibody against hen egg lysozyme)
